Assay results reported in article doi:10.1101/2025.08.31.673340, “Structural and dynamic basis of indirect apoptosis inhibition by Bcl-xL: a case study with Bid” (bioRxiv, 2025).
Numbering of substitutions follows the chain as printed.

B1: cBid (mouse Bid cleaved by Caspase 8), wild type (complex)
chain 1: MDSEVSNGSGLGAEHITDLLVFGFLQSSGCTRQELEVLGRELPVQAYWEADLEDELQTD
chain 2: GSQASRSFNQGRIEPDSESQEEIIHNIARHLAQIGDEMDHNIQPTLVRQLAAQFMNGSLSEEDKRNCLAKALDEVKTAFPRDMENDKAMLIMTMLLAKKVASHAPSLLRDVFHTTVNFINQNLFSYVRNLVRNEMD
notes: also called cBid wt; cBidWT; source: E. coli, purified from the soluble fraction (Ni-NTA), cleaved with Caspase 8, purified again with Ni-NTA; not shown: His tag (on Bid before cleavage)
B2: cBid spin-labeled at the natural cysteine 126 (complex, mouse)
chain 1: B1 chain 1 with C30S
chain 2: B1 chain 2
modifications: MTSL spin label on cysteine 126
notes: p7 fragment of mouse Bid; natural cysteine C30 replaced by serine (singly labeled variant); tBid fragment of mouse Bid with its natural cysteine C126; source: E. coli, purified (Ni-NTA), cleaved with Caspase 8, purified again with Ni-NTA, spin-labeled with MTSL; not shown: His tag (on Bid before cleavage)

How the values were obtained:
[1] = target: T1, human Bcl-xL, full length, wild type (human, UniProt Q07817-1 1-233); test: HDX-MS; conditions Bcl-xL; Bcl-xL + LUVs; Bcl-xL + LUVs + cBid; cBid; proteins (340 pmol) pre-incubated with LUVs 1 h at 37 °C, centrifuged at 20'000 x g, the pellet used for deuterium labelling; conditions: both partners purified
T1 construct: human Bcl-xL, full length with the C-terminal hydrophobic helix α9; also called Bcl-xL wt; unlabeled wild type Bcl-xL; source: E. coli, purified from the soluble fraction (chitin resin, anion exchange, Superdex 200)

[2] = target: T1, human Bcl-xL, full length, wild type; test: co-sedimentation; spin-labeled protein incubated with LUVs alone or with the unlabeled partner; supernatant and pellet fractions quantified by room temperature continuous wave EPR (spin counting); conditions: both partners purified

T1 sequence (Q07817 whole entry): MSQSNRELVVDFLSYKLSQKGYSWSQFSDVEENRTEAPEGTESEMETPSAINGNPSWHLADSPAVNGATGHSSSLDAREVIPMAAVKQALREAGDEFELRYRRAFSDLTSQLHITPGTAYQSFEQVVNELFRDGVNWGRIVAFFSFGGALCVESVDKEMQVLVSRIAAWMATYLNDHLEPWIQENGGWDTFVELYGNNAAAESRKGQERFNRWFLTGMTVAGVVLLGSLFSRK

Binder | binding result [1] | binding result [2]
B1 | binds | –
B2 | – | binds
